Experiment: soluble on expression in E. coli; label from the status in PepcDB or PDB records

Sequence | soluble on expression in E. coli
MAHHHHHHMKTLAKKTLQGGVSGKCGSQIIIAHGLLGNSTNWMSVGRRLAAHDGVRGRLEEIHMLDMRNHGESPHFNAHTNATMASDIEHFVLQQQRQWQSRAGAEGDGGIVLIGHSMGGFAVMGSMLRRANETSLLLQSGVEELEQRCKRGDYYGWCDEQGNAAEMRAVNRAMGLPETQPLYDILYDCKGDNVARPPRVKAVVIVDITPSTALGTHRQHGQNSSETLDAMVAADLSRVHSFGDGNAELERVGVSNKAMRDFLLTNLRLDPRTKEATWRCNLPVLRADYNSIALGVSGWFLSASEKVSRDRGGELVAPLRCSLPTLFVFGQNSPYNTPEDRRLIPRFFSNAIEVEVEGAGHFVHYEKMQEFVNVVVPFLTEYL | not soluble
MAHHHHHHMLRSTLTSLNTFLTSSVATPPISVIRTGPKWWADPERMVRQKLMYFTLGVDQLPLRRTAVIQRDLQRFHMCKPPPRVGDSTGYKRSRAAQLNTWYRRIQYQEYHMQHLFTRHVWGLLRVYPGNTTKIQGKADDGYVGYDSVPFHRYNRAPLPFPARELYERRK | not soluble
MAHHHHHHMLRVIVRRLAWRPAAIQHLPDLGSKDAPKKTEDTQRQYRPLSLRARQALAEKSDEVQYHVITQDWFGQRVDTFLTQHHPEWSYETMKTLVQQGHIYRYRKNGKKRFTRITDRLEFDELLVVPTPVFYERQLAPPTGVLQESKKPTHFKLSSQVREMAHNMVLFKNEHVIVINKPHGVPMMPTSDPQEMNIAAMLSAWKYTNSTKPIVCHNLDKETSGCVVLARSKNAHRMLARMFVKRVVPNSVYWGFCVGKPSVNFGRIRMHFEMTRGTKGDIIVARPSPTKTSKVGIAEFVVNASALEFGSFISFYPLTTRRHQERIMAAHALRSPLLGDAKYGGESAFPSSMSLFWDPEDKGLPLHLHHRKIQLPYKNSTGEFVCVTAPLPIHMEKTFKKLGWPCDVDDPLIPG | not soluble
MAHHHHHHMLSDNDLTFHIPSAGLRRMDAWTAPNPSVFSHLHLVGNPDWMSSFSASPQVAAARPALAPPAPVAIEPSAPRPLAAPAAIDAPAPATKKSFLSMFYRGSSNTVSSSVMPPKTSSASFAPMSAPPKALDAFDTPMQRALPVDAQLSVEHLSKLDAVDATISAAPRREPPHPMALGSDTWNALSSVPVPAKTAAGSARLLAPPASIDAVFSRDSKPLWSDLSFASRFRSTAPTLEAFRNAPPAPILSTPPRSPQHQATSSTATVATAFIPVPPKPVTASPLRDTAVSSVEAAAPATMPAARREPRAMAHPLVPVGEDAPAVVTPLLKPVQEIPMVSSKSANLAPSTVNATPPVWGPEPLSLASREPEPSALALPTEFAKSISRPTMQEAQRDEARAAANVRNFISTLFSGSGSDEMDSSTAGNRKADGFNALEFVTNRRGAQAKASQPVDYSTFFNTSLFEDDHDEDSEEGLEKLRRVVLMVMQSAKNSEGTCVSQPTSQSCRRGGGVDATGVAALTTFPSKYTEFSASYQTANNNNADDNEWMQFAR | not soluble
MAHHHHHHMLSEEEQATLLKYYSTVKLHETQMDQLAQAYWAATREERGEIAKVYAHTFVDPTFVQRLIFFHDYRMSLTAAGAGLSSSTGAAVGTGSSFAGQQSGSESANSPLMAGPPSSFMAESPTTAANHAPRRTHAQHLLRSTIQEHFPKLTGPGPYALQFGCVQSEKEREEVIELYSSQFLHPDPPELHRIVALPSSFSTRTRKRISGSYSWYLRCLATQELVCAVTVTVHQQETIRFAEMPLFATGVGYKKNGFGRLLNAALLAWCAEVGLEFIMISADVQAIPFWRHLGYRAMTRGEKNRIDFFYQHDCCKFKGAETMIGYCNVDRGNGSLSGGVGRRAFHSGGSTEVLHRSVRQVLAQLPRFVVEGPAKLPTE | soluble
MAHHHHHHMLSHSSQLCSLWIESARVIRLDHCRCPGRLVSTGLGVSSEIRKTNLNGKSYTLDPVEMEPVFGVNRASDFSEKGGLCSTNETNEKNVLLSGGDIVSRNQKEVDKVERVALVAEKEHEEEEPLARNLHNTIGPTPYRVSWYDYGSVSPSKRFTYWAYRRLKELPTDWQEYYRRMLYQEISAARYVNQTWDCFMMVVDGYRKAKWILKKYGISIDESLIPKPYNNFWEETTHEERVWAHRRSHQMKELQALYRDEDELVFGAHTMDRREVSHGSIKNVQTGMQGGTPVHALDLPAPCESEIKTSPQIEDMSSALMSSIEDDKLWNPVLRSRIHTRRSREEVELYSFEDDEEDENSPS | soluble
MAHHHHHHMMAIRNMLRKIIIKHGKVANAVWVPKRFINMNPTGNEEKVTQERNKRDYILSLDEALYLSKEMGIKTTTEIQKIIMRSPPFSPDMSPFLIDNFLSSANKDRHSDEIDQIDLKLKELQERDSNPEESEQGEDEGAVENSKINISHDREENIINKILIDKFNKKRGKTFIHNDMEWLEESEGIGTNKRSCAYVYIKRGSGIVKVNDEEDLYIRWPYFYNRMDVLEPFYVTNTSCVFDVFIKLKGGGISGQSKAARLAIGRALLNACPLIYDDLQQHHILYEDMRQKFPKMPGRKKSRAMKQWSKR | not soluble
MAHHHHHHMMCLKLNLLDHVFANPFMNAAGVLCSTEEDLRCMTASSSGALVSKSCTSAPRDGNPEPRYMAFPLGSINSMGLPNLGFDFYLKYASDLHDYSKKPLFLSISGLSVEENVAMVRRLAPVAQEKGVLLELNLSCPNVPGKPQVAYDFEAMRTYLQQVSLAYGLPFGVKMPPYFDIAHFDTAAAVLNEFPLVKFVTCVNSVGNGLVIDAESESVVIKPKQGFGGLGGKYILPTALANVNAFYRRCPDKLVFGCGGVYSGEDAFLHILAGASMVQVGTALQEEGPGIFTRLEDELLEIMARKGYRTLEEFRGRVKTIE | not soluble
MAHHHHHHMMRRVPITVSFDALDTLIQITRGLGYQYRSSYASFLLAHGIDLDATCPNATCEAVQELALKAIRDQVRAERAAWTRSANPKEMPIGGDTDEELRSFWARVLRQTYTCATLYDGAAADVVQRIEELWGDHHNEVRCFEDYVLFDQFSSTKAHSWCPEGLRTLQCLRKWNQVQMSCDESAVRPGLADTKPASDLDVFSPSSAAASPVLFLAAPPFVVSNMDPRIRGVFMQLGAFEAGESGEPPLLSRIISARDTGYAKPSPAGILTGVRDIAASYRAACQSCGACDAGVDVHRHVHVGDADADRVACERAGCHFVQCDPATGVTWGLLQAKLQELEALYGSAPLPH | not soluble
MAHHHHHHMNDIYARRLAQATMFHQLMRCHGTLWAATQVTKEQMDYNFIREEFMRVNGRRAMPLLLGAAANENLHQLHLSHLSEHCAWGESARALAVQRQTPLSQRVAALGRMAETIHQVKTASTVQNLFNEQISCMEGISSFEEEPLIEGE | not soluble
MAHHHHHHMNLNVSKDVNNYMKINGIIKKVDIKRYYNKKLNNWSYEDNAKEFDKKDEKEYGSKYEYNNKFINEEEKKDEEKKYRYDEKIHKGLYSEDNSTSMNNRYNNNESTYKMPKEILNRHEKIDLNSLPIDEEIINNLKIILNIEKLYMYQYIIYNEILKNSKHLLIYNKTGTGKTLSYLLPLIQKLINDKFDCNKKVLIITQNIYLCKQLYIYILSIYPTLNVCILSDEKESYNMNNNINNDIIVNIKRNNINPNDKENNDMCDEKYGIHFYLCTPNKLEYFIKNYKNKSRNDKNVMNNILNNINTIVIDEFDYIVEYRKNILNFFFKKDLFNEIHNNNNIRDKNRFNHDIFNKSNYNIYLFTANINEVIKKKIYEHLNGFVFFDFINGIKEHIQKQVAEQHNFNIDVLKNSENVVQLLNKENKNESLCNLNITHFVCKINSASKYKYVCYFLEEFFFHKQKISQKVYNDMVYDEYDKLNYRNMIPMEENKFVNNSEKEGNMKRSNADKINKCIIFANTKEEVEKLYEISLLKPHAVMMHSELLTIQKNENINLFKVGKKNVLITTDIISRGLDIDNVIFILNYSPPTSPNDYIHRSGRTGRGKEKGICLTMYHKYEYRNVDKIMKYTKNKFEVILCPK | not soluble
MAHHHHHHMNNTNIVTFSPKLKYSINDVVHRDREVKEYHLQIDREASDILFFCTIKPKQVSELLEGEVKINLKREVGEQYSVASEDGTHVCDFSKGNLNISPSAGFNYKHDRSVSCIYLVIPNKLFLIKLPKLNIVTEQFLPNLVSCLSEYSFINFNLKHVEESDDSISLHLSFGDFKKNFNVSCAFDLSEYAVEPCSLGKKGIVTFYFNA | not soluble
MAHHHHHHMNVFDCTLCVATTISQFLVDEVMKQVSLYGGFRHVVRCHGNPQEDFMDVKQSGEPIVLLIANQAGREALKFLCDDYHLPKEQRRVLWIHSISSGLDSYKLNELVKELQDIPLTNARGCYSSILAEHVMYSMLYFYRQTWRSLASRAEHKWDPFLMVELRGRKVGIIGYGDIGRASAKLLSAFGMEVTGVKRSASTKEVDEYGVRLVHGDAERERVLRESDFVVNILPGTEETKRLFNKELFSMMKPSAVYINIGRGITQNEDDLACALRDGVIRGASVDVFEREPLPAESPLWDISDDKILLTYHNAVLSDDFCKKAIDCFMLLARDFGSDGFASNVIQIDKFYCG | soluble
MAHHHHHHMNVKVEEGHPYNSYAEIKKRKTKKKKYIQNGRAGNNVEDNVDDNVEDNVGNNVDDNVEDNVGNNVDDNVDNNVDDNVKNRLSPKNNEKSNPRHKKKNTSKSPICDGRKKDIEFHTLYESDEKNNMVSRRSSVESIGEEKDMKADVKKNDINYKVKLNTLMLQSYLHKSYDKVSNILKKTSQTFMKKSLSYETEKVDDKTGNNIQNNNNEKNETHGNINYDQDDFVQNFNKIFNNMIENPTNDLSEEEKKFFEQNSQCINKMLHENASCQKNKKEKILKKYKKKIIENKDISSLYDKFKELLDERTLLFKLIIYYKNINYNYKQHIDKIQHSYDILISENEQLNLNNITLKKHIDLFRKGDNIKRDDNEYVK | soluble
MAHHHHHHMPADSTATAREVPIDTVALQLDAEMAQMRLQRQRYSTLCTRKNRLQAHVDELNAQGKDLTFQRQREQTRSAQELEHGLASSSTSLPEISRTPGDQAQLPAEVLGGALQELTACITERRELLQHLRDGSHDCLKLRDARFAKCSLSTVAGLDDHVASQSGIHASDTTAVIAGRGEAPTRCAARNPVSDSAVTSAAPASGLRHVEEGLAKAHQALCRGEEKALAEREYLLLLLQQCAQPQQLQQGRGRLACRQMAD | not soluble
MAHHHHHHMPCNVSCSTSPNSVTGEPRFIMDFSMNKVAKYFRLLGYDTLCSRDVPQANLIPTACAEGRILVTCSRPLARSVQLHNQRVRTMRLGIAKAMTGAAHHVIAYDSDGESIYSEDSEEVDVELRCLFTQQWCSGEFKRAMIELIQQAGVTYDLNRVFRRCVTCNELLVTMEKEEVRGRVVAKIYEIYDEFTECPTCRKVFWGFDGVFAINYKSFRSLNLLRSLCICAGAPVEEERTRLNRLRCFRSFPRIAKVLIFSYLEDVDLANMTVVFPALRDLAEEVQASRQTGEPVRKMQLRKH | not soluble
MAHHHHHHMPFTEVYGVEQFRDIANDPTLTVVCFSAVWCGPCKTIEKDLDRLTYEFASVRFAKVDADNNTDIVSKCRVMQLPTFMLVRAGQMLGYVIGADLAQLKAKIREEANKS | soluble

— the DeepSol protein solubility set
